Residue numbers refer to the chain shown, from its start. In names and notes the source's numbering stands. Each block holds one molecule with its values, some of them ahead of it.
Columns and labels:
[1] = molecular target: CB1R (type-1 cannabinoid receptor) (UniProt P21554); test: BRET saturation, CB1R-RLuc and GFP-GAP43; conditions: reference: GFP-GAP43 wild type; sites S41
[2] = molecular target: T1, hGAP43 (purified, unlabeled human growth-associated protein of 43 kDa) (human, UniProt P17677 1-238); test: fluorescence polarisation; fixed concentration of 5-IAF-labeled hCB1R-CTD, increasing concentrations of unlabeled hGAP43; 3 independent experiments; conditions: both partners purified
T1 construct: growth-associated protein of 43 kDa (GAP43, neuromodulin), human; also called unlabeled GAP43; neuromodulin; source: purified (details in Supplementary Methods)
T1 sequence (looked up): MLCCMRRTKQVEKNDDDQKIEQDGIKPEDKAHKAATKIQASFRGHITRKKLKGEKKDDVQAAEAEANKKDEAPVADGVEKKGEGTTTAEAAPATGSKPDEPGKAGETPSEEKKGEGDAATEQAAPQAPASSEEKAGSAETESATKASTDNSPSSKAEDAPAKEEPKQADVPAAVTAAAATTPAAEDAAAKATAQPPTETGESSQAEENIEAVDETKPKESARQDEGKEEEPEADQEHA

RLuc-tagged CB1R = molecular target: T2, RLuc-tagged CB1R (UniProt P21554 1-472); test: FRET or BRET; BRET saturation in live HEK293T cells expressing CB1R-RLuc and increasing amounts of GFP-GAP43 forms; 3 independent experiments; conditions: partners not purified
T2 construct: type-1 cannabinoid receptor (CB1R); also called CB1R-RLuc; source: HEK293T, transfected, in live cells

other: BRET50 (RLuc/GFP ratio giving half-maximal BRET) [1]: stronger; reference 15.18 ± 4.53
Molecule: GAP43 (growth-associated protein of 43 kDa; neuromodulin) (from UniProt P17677) GFP-GAP43 S41D

Kd [2]: 38.2 µM
B1: 5-(iodoacetamido)fluorescein-labeled hCB1R-CTD (domain or fragment, human, UniProt P21554 408-472, looked up)
chain: FRSMFPSCEGTAQPLDNSMGDSDCLHKHANNAASVHRAAESCIKSTVKIAKVTMSVSTDTSAEAL
modifications: also: 5-(iodoacetamido)fluorescein label, position not given here
notes: type-1 cannabinoid receptor (CB1R), human, C-terminal intracellular domain, amino acids 408-472; protein expression and purification are in the Supplementary Methods; also called 5-IAF-labeled CB1R-CTD; source: purified (recombinant; details in Supplementary Methods)

BRET50 (RLuc/GFP ratio that gives half-maximal BRET effect) (RLuc-tagged CB1R): 15.2
B2: GFP-GAP43(WT) (natural protein, UniProt P17677 1-238, looked up)
chain: T1 sequence (looked up)
notes: growth-associated protein of 43 kDa (GAP43), wild type; In the co-IP and DMR experiments the text writes GAP43(WT) without GFP; source: HEK293T, transfected, in cells or lysate

BRET50 (RLuc/GFP ratio that gives half-maximal BRET effect) (RLuc-tagged CB1R): 7.08
B3: GFP-GAP43(S41D) (natural protein, UniProt P17677 1-238, looked up)
chain: T1 sequence (looked up) with S41D
notes: growth-associated protein of 43 kDa (GAP43) with the phospho-mimetic point mutation S41D; In the co-IP and DMR experiments the text writes GAP43(S41D) without GFP; also called phospho-mimetic GAP43; source: HEK293T, transfected, in cells or lysate

Reference: publication PMC10121561, “Control of a hippocampal recurrent excitatory circuit by cannabinoid receptor-interacting protein Gap43” (Nature Communications, 2023)
